Data: paper PMC10538386 (Bioconjugate chemistry, 2023)
Numbering of substitutions follows the chain as printed. In names and notes the source's numbering stands.

B1: PhMV Cys1+2 (A31C S137C) coat protein, assembled as virus-like particles (natural protein, Physalis mottle virus)
chain: MDSSEVVKVKQASIPAPGSILSQPNTEQSPCIVLPFQFEATTFGTAETAAQVSLQTADPITKLTAPYRHAQIVECKAILTPTDLAVSNPLTVYLAWVPANSPATPTQILRVYGGQSFVLGGAISAAKTIEVPLNLDCVNRMLKDSVTYTDTPKLLAYSRAPTNPSKIPTASIQISGRIRLSKPMLIAN
B2: PhMV Cys1 (A31C) coat protein, assembled as virus-like particles (natural protein, Physalis mottle virus)
chain: B1 chain with C137S
B3: PhMV Cys2 (S137C) coat protein, assembled as virus-like particles (natural protein, Physalis mottle virus)
chain: B1 chain with C31A

Tests used:
[1] = biological target: the molecule itself; experiment: transmission electron microscopy
SEC = biological target: the molecule itself; experiment: SEC

Protein	binding result [1]	binding result (SEC)
B1	binds	–
B2	–	binds
B3	–	binds
